According to patent US20120252071A1 (ROCHE DIAGNOSTICS OPERATIONS, published 2012):

Biological target: the molecule itself
Experiment: non-reducing SDS-PAGE (self-association by disulfide bonds)

Protein	binding result
T7 variant #26 [Cys723Ser, Ala702Val, Val795Ile] (enzyme, not shown: N-terminal His-tag) MNTINIAKNDFSDIELAAIPFNTLADHYGERLAREQLALEHESYEMGEARFRKMFERQLKAGEVADNAAAKPLITTLLPKMIARINDWFEEVKAKRGKRPTAFQFLQEIKPEAVAYITIKTTLACLTSADNTTVQAVASAIGRAIEDEARFGRIRDLEAKHFKKNVEEQLNKRVGHVYKKAFMQVVEADMLSKGLLGGEAWSSWHKEDSIHVGVRCIEMLIESTGMVSLHRQNAGVVGQDSETIELAPEYAEAIATRAGALAGISPMFQPCVVPPKPWTGITGGGYWANGRRPLALVRTHSKKALMRYEDVYMPEVYKAINIAQNTAWKINKKVLAVANVITKWKHCPVEDIPAIEREELPMKPEDIDMNPEALTAWKRAAAAVYRKDKARKSRRISLEFMLEQANKFANHKAIWFPYNMDWRGRVYAVSMFNPQGNDMTKGLLTLAKGKPIGKEGYYWLKIHGANCAGVDKVPFPERIKFIEENHENIMACAKSPLENTWWAEQDSPFCFLAFCFEYAGVQHHGLSYNCSLPLAFDGSCSGIQHFSAMLRDEVGGRAVNLLPSETVQDIYGIVAKKVNEILQADAINGTDNEVVTVTDENTGEISEKVKLGTKALAGQWLAYGVTRSVTKRSVMTLAYGSKEFGFRQQVLEDTIQPAIDSGKGLMFTQPNQAAGYMAKLIWESVSVTVVAAVEAMNWLKSVAKLLAAEVKDKKTGEILRKRSAVHWVTPDGFPVWQEYKKPIQTRLNLMFLGQFRLQPTINTNKDSEIDAHKQESGIAPNFVHSQDGSHLRKTIVWAHEKYGIESFALIHDSFGTIPADAANLFKAVRETMVDTYESCDVLADFYDQFADQLHESQLDKMPALPAKGNLNLRDILESDFAFA	no binding
T7 variant #28 [Cys723Ser, Val426Leu, Ala702Val] (enzyme, not shown: N-terminal His-tag) MNTINIAKNDFSDIELAAIPFNTLADHYGERLAREQLALEHESYEMGEARFRKMFERQLKAGEVADNAAAKPLITTLLPKMIARINDWFEEVKAKRGKRPTAFQFLQEIKPEAVAYITIKTTLACLTSADNTTVQAVASAIGRAIEDEARFGRIRDLEAKHFKKNVEEQLNKRVGHVYKKAFMQVVEADMLSKGLLGGEAWSSWHKEDSIHVGVRCIEMLIESTGMVSLHRQNAGVVGQDSETIELAPEYAEAIATRAGALAGISPMFQPCVVPPKPWTGITGGGYWANGRRPLALVRTHSKKALMRYEDVYMPEVYKAINIAQNTAWKINKKVLAVANVITKWKHCPVEDIPAIEREELPMKPEDIDMNPEALTAWKRAAAAVYRKDKARKSRRISLEFMLEQANKFANHKAIWFPYNMDWRGRLYAVSMFNPQGNDMTKGLLTLAKGKPIGKEGYYWLKIHGANCAGVDKVPFPERIKFIEENHENIMACAKSPLENTWWAEQDSPFCFLAFCFEYAGVQHHGLSYNCSLPLAFDGSCSGIQHFSAMLRDEVGGRAVNLLPSETVQDIYGIVAKKVNEILQADAINGTDNEVVTVTDENTGEISEKVKLGTKALAGQWLAYGVTRSVTKRSVMTLAYGSKEFGFRQQVLEDTIQPAIDSGKGLMFTQPNQAAGYMAKLIWESVSVTVVAAVEAMNWLKSVAKLLAAEVKDKKTGEILRKRSAVHWVTPDGFPVWQEYKKPIQTRLNLMFLGQFRLQPTINTNKDSEIDAHKQESGIAPNFVHSQDGSHLRKTVVWAHEKYGIESFALIHDSFGTIPADAANLFKAVRETMVDTYESCDVLADFYDQFADQLHESQLDKMPALPAKGNLNLRDILESDFAFA	no binding
T7 variant #33 [Cys125Ser, Cys347Ser, Cys492Ser, Cys515Ser, Cys723Ser, Cys839Ser, Val426Leu, Ala702Val, Val795Ile] (enzyme, not shown: N-terminal His-tag) MNTINIAKNDFSDIELAAIPFNTLADHYGERLAREQLALEHESYEMGEARFRKMFERQLKAGEVADNAAAKPLITTLLPKMIARINDWFEEVKAKRGKRPTAFQFLQEIKPEAVAYITIKTTLASLTSADNTTVQAVASAIGRAIEDEARFGRIRDLEAKHFKKNVEEQLNKRVGHVYKKAFMQVVEADMLSKGLLGGEAWSSWHKEDSIHVGVRCIEMLIESTGMVSLHRQNAGVVGQDSETIELAPEYAEAIATRAGALAGISPMFQPCVVPPKPWTGITGGGYWANGRRPLALVRTHSKKALMRYEDVYMPEVYKAINIAQNTAWKINKKVLAVANVITKWKHSPVEDIPAIEREELPMKPEDIDMNPEALTAWKRAAAAVYRKDKARKSRRISLEFMLEQANKFANHKAIWFPYNMDWRGRLYAVSMFNPQGNDMTKGLLTLAKGKPIGKEGYYWLKIHGANCAGVDKVPFPERIKFIEENHENIMASAKSPLENTWWAEQDSPFCFLAFSFEYAGVQHHGLSYNCSLPLAFDGSCSGIQHFSAMLRDEVGGRAVNLLPSETVQDIYGIVAKKVNEILQADAINGTDNEVVTVTDENTGEISEKVKLGTKALAGQWLAYGVTRSVTKRSVMTLAYGSKEFGFRQQVLEDTIQPAIDSGKGLMFTQPNQAAGYMAKLIWESVSVTVVAAVEAMNWLKSVAKLLAAEVKDKKTGEILRKRSAVHWVTPDGFPVWQEYKKPIQTRLNLMFLGQFRLQPTINTNKDSEIDAHKQESGIAPNFVHSQDGSHLRKTIVWAHEKYGIESFALIHDSFGTIPADAANLFKAVRETMVDTYESSDVLADFYDQFADQLHESQLDKMPALPAKGNLNLRDILESDFAFA	no binding
T7 variant #32 [Cys723Ser, Val426Leu, Ala702Val, Val795Ile] (enzyme, not shown: N-terminal His-tag) MNTINIAKNDFSDIELAAIPFNTLADHYGERLAREQLALEHESYEMGEARFRKMFERQLKAGEVADNAAAKPLITTLLPKMIARINDWFEEVKAKRGKRPTAFQFLQEIKPEAVAYITIKTTLACLTSADNTTVQAVASAIGRAIEDEARFGRIRDLEAKHFKKNVEEQLNKRVGHVYKKAFMQVVEADMLSKGLLGGEAWSSWHKEDSIHVGVRCIEMLIESTGMVSLHRQNAGVVGQDSETIELAPEYAEAIATRAGALAGISPMFQPCVVPPKPWTGITGGGYWANGRRPLALVRTHSKKALMRYEDVYMPEVYKAINIAQNTAWKINKKVLAVANVITKWKHCPVEDIPAIEREELPMKPEDIDMNPEALTAWKRAAAAVYRKDKARKSRRISLEFMLEQANKFANHKAIWFPYNMDWRGRLYAVSMFNPQGNDMTKGLLTLAKGKPIGKEGYYWLKIHGANCAGVDKVPFPERIKFIEENHENIMACAKSPLENTWWAEQDSPFCFLAFCFEYAGVQHHGLSYNCSLPLAFDGSCSGIQHFSAMLRDEVGGRAVNLLPSETVQDIYGIVAKKVNEILQADAINGTDNEVVTVTDENTGEISEKVKLGTKALAGQWLAYGVTRSVTKRSVMTLAYGSKEFGFRQQVLEDTIQPAIDSGKGLMFTQPNQAAGYMAKLIWESVSVTVVAAVEAMNWLKSVAKLLAAEVKDKKTGEILRKRSAVHWVTPDGFPVWQEYKKPIQTRLNLMFLGQFRLQPTINTNKDSEIDAHKQESGIAPNFVHSQDGSHLRKTIVWAHEKYGIESFALIHDSFGTIPADAANLFKAVRETMVDTYESCDVLADFYDQFADQLHESQLDKMPALPAKGNLNLRDILESDFAFA	no binding
T7 variant #35 [Cys723Ser, Val426Leu, Val650Leu, Ala702Val, Val795Ile] (enzyme, not shown: N-terminal His-tag) MNTINIAKNDFSDIELAAIPFNTLADHYGERLAREQLALEHESYEMGEARFRKMFERQLKAGEVADNAAAKPLITTLLPKMIARINDWFEEVKAKRGKRPTAFQFLQEIKPEAVAYITIKTTLACLTSADNTTVQAVASAIGRAIEDEARFGRIRDLEAKHFKKNVEEQLNKRVGHVYKKAFMQVVEADMLSKGLLGGEAWSSWHKEDSIHVGVRCIEMLIESTGMVSLHRQNAGVVGQDSETIELAPEYAEAIATRAGALAGISPMFQPCVVPPKPWTGITGGGYWANGRRPLALVRTHSKKALMRYEDVYMPEVYKAINIAQNTAWKINKKVLAVANVITKWKHCPVEDIPAIEREELPMKPEDIDMNPEALTAWKRAAAAVYRKDKARKSRRISLEFMLEQANKFANHKAIWFPYNMDWRGRLYAVSMFNPQGNDMTKGLLTLAKGKPIGKEGYYWLKIHGANCAGVDKVPFPERIKFIEENHENIMACAKSPLENTWWAEQDSPFCFLAFCFEYAGVQHHGLSYNCSLPLAFDGSCSGIQHFSAMLRDEVGGRAVNLLPSETVQDIYGIVAKKVNEILQADAINGTDNEVVTVTDENTGEISEKVKLGTKALAGQWLAYGVTRSVTKRSVMTLAYGSKEFGFRQQLLEDTIQPAIDSGKGLMFTQPNQAAGYMAKLIWESVSVTVVAAVEAMNWLKSVAKLLAAEVKDKKTGEILRKRSAVHWVTPDGFPVWQEYKKPIQTRLNLMFLGQFRLQPTINTNKDSEIDAHKQESGIAPNFVHSQDGSHLRKTIVWAHEKYGIESFALIHDSFGTIPADAANLFKAVRETMVDTYESCDVLADFYDQFADQLHESQLDKMPALPAKGNLNLRDILESDFAFA	no binding
T7 variant #30 [Cys723Ser, Val426Leu, Val795Ile] (enzyme, not shown: N-terminal His-tag) MNTINIAKNDFSDIELAAIPFNTLADHYGERLAREQLALEHESYEMGEARFRKMFERQLKAGEVADNAAAKPLITTLLPKMIARINDWFEEVKAKRGKRPTAFQFLQEIKPEAVAYITIKTTLACLTSADNTTVQAVASAIGRAIEDEARFGRIRDLEAKHFKKNVEEQLNKRVGHVYKKAFMQVVEADMLSKGLLGGEAWSSWHKEDSIHVGVRCIEMLIESTGMVSLHRQNAGVVGQDSETIELAPEYAEAIATRAGALAGISPMFQPCVVPPKPWTGITGGGYWANGRRPLALVRTHSKKALMRYEDVYMPEVYKAINIAQNTAWKINKKVLAVANVITKWKHCPVEDIPAIEREELPMKPEDIDMNPEALTAWKRAAAAVYRKDKARKSRRISLEFMLEQANKFANHKAIWFPYNMDWRGRLYAVSMFNPQGNDMTKGLLTLAKGKPIGKEGYYWLKIHGANCAGVDKVPFPERIKFIEENHENIMACAKSPLENTWWAEQDSPFCFLAFCFEYAGVQHHGLSYNCSLPLAFDGSCSGIQHFSAMLRDEVGGRAVNLLPSETVQDIYGIVAKKVNEILQADAINGTDNEVVTVTDENTGEISEKVKLGTKALAGQWLAYGVTRSVTKRSVMTLAYGSKEFGFRQQVLEDTIQPAIDSGKGLMFTQPNQAAGYMAKLIWESVSVTVVAAVEAMNWLKSAAKLLAAEVKDKKTGEILRKRSAVHWVTPDGFPVWQEYKKPIQTRLNLMFLGQFRLQPTINTNKDSEIDAHKQESGIAPNFVHSQDGSHLRKTIVWAHEKYGIESFALIHDSFGTIPADAANLFKAVRETMVDTYESCDVLADFYDQFADQLHESQLDKMPALPAKGNLNLRDILESDFAFA	no binding
T7 variant #36 [C125S, C347S, C492S, C515S, C723S, C839S, V426L, V650L, A702V, V795I] (enzyme, not shown: N-terminal His-tag) MNTINIAKNDFSDIELAAIPFNTLADHYGERLAREQLALEHESYEMGEARFRKMFERQLKAGEVADNAAAKPLITTLLPKMIARINDWFEEVKAKRGKRPTAFQFLQEIKPEAVAYITIKTTLASLTSADNTTVQAVASAIGRAIEDEARFGRIRDLEAKHFKKNVEEQLNKRVGHVYKKAFMQVVEADMLSKGLLGGEAWSSWHKEDSIHVGVRCIEMLIESTGMVSLHRQNAGVVGQDSETIELAPEYAEAIATRAGALAGISPMFQPCVVPPKPWTGITGGGYWANGRRPLALVRTHSKKALMRYEDVYMPEVYKAINIAQNTAWKINKKVLAVANVITKWKHSPVEDIPAIEREELPMKPEDIDMNPEALTAWKRAAAAVYRKDKARKSRRISLEFMLEQANKFANHKAIWFPYNMDWRGRLYAVSMFNPQGNDMTKGLLTLAKGKPIGKEGYYWLKIHGANCAGVDKVPFPERIKFIEENHENIMASAKSPLENTWWAEQDSPFCFLAFSFEYAGVQHHGLSYNCSLPLAFDGSCSGIQHFSAMLRDEVGGRAVNLLPSETVQDIYGIVAKKVNEILQADAINGTDNEVVTVTDENTGEISEKVKLGTKALAGQWLAYGVTRSVTKRSVMTLAYGSKEFGFRQQLLEDTIQPAIDSGKGLMFTQPNQAAGYMAKLIWESVSVTVVAAVEAMNWLKSVAKLLAAEVKDKKTGEILRKRSAVHWVTPDGFPVWQEYKKPIQTRLNLMFLGQFRLQPTINTNKDSEIDAHKQESGIAPNFVHSQDGSHLRKTIVWAHEKYGIESFALIHDSFGTIPADAANLFKAVRETMVDTYESSDVLADFYDQFADQLHESQLDKMPALPAKGNLNLRDILESDFAFA	no binding
